Data: patent US20110263454A1, “Methods of Identifying Functional Characteristics of Promoters, Transcription Modifying Proteins and Transcription Modulating Agents” (Salk Institute for Biological Studies, priority 2008, published 2011)

B1: RXRb: Retinoic X Receptor β (NR2B2), cDNA driver (protein, UniProt P28702 1-533, looked up)
Retinoic acid receptor …: MSWAARPPFLPQRHAAGQCGPVGVRKEMHCGVASRWRRRRPWLDPAAAAAAAVAGGEQQTPEPEPGEAGRDGMGDSGRDSRSPDSSSPNPLPQGVPPPSPPGPPLPPSTAPSLGGSGAPPPPPMPPPPLGSPFPVISSSMGSPGLPPPAPPGFSGPVSSPQINSTVSLPGGGSGPPEDVKPPVLGVRGLHCPPPPGGPGAGKRLCAICGDRSSGKHYGVYSCEGCKGFFKRTIRKDLTYSCRDNKDCTVDKRQRNRCQYCRYQKCLATGMKREAVQEERQRGKDKDGDGEGAGGAPEEMPVDRILEAELAVEQKSDQGVEGPGGTGGSGSSPNDPVTNICQAADKQLFTLVEWAKRIPHFSSLPLDDQVILLRAGWNELLIASFSHRSIDVRDGILLATGLHVHRNSAHSAGVGAIFDRVLTELVSKMRDMRMDKTELGCLRAIILFNPDAKGLSNPSEVEVLREKVYASLETYCKQKYPEQQGRFAKLLLRLPALRSIGLKCLEHLFFFKLIGDTPIDTFLMEMLEAPHQLA
B2: PXR: Pregnane X Receptor (NR1I2), cDNA driver (protein, UniProt O75469 1-434, looked up)
Nuclear receptor subfamily 1 …: MEVRPKESWNHADFVHCEDTESVPGKPSVNADEEVGGPQICRVCGDKATGYHFNVMTCEGCKGFFRRAMKRNARLRCPFRKGACEITRKTRRQCQACRLRKCLESGMKKEMIMSDEAVEERRALIKRKKSERTGTQPLGVQGLTEEQRMMIRELMDAQMKTFDTTFSHFKNFRLPGVLSSGCELPESLQAPSREEAAKWSQVRKDLCSLKVSLQLRGEDGSVWNYKPPADSGGKEIFSLLPHMADMSTYMFKGIISFAKVISYFRDLPIEDQISLLKGAAFELCQLRFNTVFNAETGTWECGRLSYCLEDTAGGFQQLLLEPMLKFHYMLKKLQLHEEEYVLMQAISLFSPDRPGVLQHRVVDQLQEQFAITLKSYIECNRPQPAHRFLFLKIMAMLTELRSINAQHTQRLLRIQDIHPFATPLMQELFGITGS
B3: PPARd: Peroxisome proliferator activated receptor δ (NR1C2), cDNA driver (protein, UniProt Q03181 1-441, looked up)
Peroxisome …: MEQPQEEAPEVREEEEKEEVAEAEGAPELNGGPQHALPSSSYTDLSRSSSPPSLLDQLQMGCDGASCGSLNMECRVCGDKASGFHYGVHACEGCKGFFRRTIRMKLEYEKCERSCKIQKKNRNKCQYCRFQKCLALGMSHNAIRFGRMPEAEKRKLVAGLTANEGSQYNPQVADLKAFSKHIYNAYLKNFNMTKKKARSILTGKASHTAPFVIHDIETLWQAEKGLVWKQLVNGLPPYKEISVHVFYRCQCTTVETVRELTEFAKSIPSFSSLFLNDQVTLLKYGVHEAIFAMLASIVNKDGLLVANGSGFVTREFLRSLRKPFSDIIEPKFEFAVKFNALELDDSDLALFIAAIILCGDRPGLMNVPRVEAIQDTILRALEFHLQANHPDAQYLFPKLLQKMADLRQLVTEHAQMMQRIKKTETETSLHPLLQEIYKDMY
B4: FXR: Farnesoid X Receptor (NR1H4), cDNA driver (protein, UniProt Q96RI1 1-486, looked up)
Bile acid receptor: MVMQFQGLENPIQISPHCSCTPSGFFMEMMSMKPAKGVLTEQVAGPLGQNLEVEPYSQYSNVQFPQVQPQISSSSYYSNLGFYPQQPEEWYSPGIYELRRMPAETLYQGETEVAEMPVTKKPRMGASAGRIKGDELCVVCGDRASGYHYNALTCEGCKGFFRRSITKNAVYKCKNGGNCVMDMYMRRKCQECRLRKCKEMGMLAECMYTGLLTEIQCKSKRLRKNVKQHADQTVNEDSEGRDLRQVTSTTKSCREKTELTPDQQTLLHFIMDSYNKQRMPQEITNKILKEEFSAEENFLILTEMATNHVQVLVEFTKKLPGFQTLDHEDQIALLKGSAVEAMFLRSAEIFNKKLPSGHSDLLEERIRNSGISDEYITPMFSFYKSIGELKMTQEEYALLTAIVILSPDRQYIKDREAVEKLQEPLLDVLQKLCKIHQPENPQHFACLLGRLTELRTFNHHHAEMLMSWRVNDHKFTPLLCEIWDVQ
B5: CAR: Constitutive Androstane Receptor (NR1I3), cDNA driver (protein, UniProt Q14994 1-352, looked up)
Nuclear receptor subfamily 1 …: MASREDELRNCVVCGDQATGYHFNALTCEGCKGFFRRTVSKSIGPTCPFAGSCEVSKTQRRHCPACRLQKCLDAGMRKDMILSAEALALRRAKQAQRRAQQTPVQLSKEQEELIRTLLGAHTRHMGTMFEQFVQFRPPAHLFIHHQPLPTLAPVLPLVTHFADINTFMVLQVIKFTKDLPVFRSLPIEDQISLLKGAAVEICHIVLNTTFCLQTQNFLCGPLRYTIEDGARVSPTVGFQVEFLELLFHFHGTLRKLQLQEPEYVLLAAMALFSPDRPGVTQRDEIDQLQEEMALTLQSYIKGQQRRPRDRFLYAKLLGLLAELRSINEAYGYQIQHIQGLSAMMPLLQEICS
B6: RARg: Retinoic acid receptor γ (NR1B3), nuclear hormone receptor cDNA driver (protein, UniProt P13631 1-454, looked up)
Retinoic acid receptor gamma: MATNKERLFAAGALGPGSGYPGAGFPFAFPGALRGSPPFEMLSPSFRGLGQPDLPKEMASLSVETQSTSSEEMVPSSPSPPPPPRVYKPCFVCNDKSSGYHYGVSSCEGCKGFFRRSIQKNMVYTCHRDKNCIINKVTRNRCQYCRLQKCFEVGMSKEAVRNDRNKKKKEVKEEGSPDSYELSPQLEELITKVSKAHQETFPSLCQLGKYTTNSSADHRVQLDLGLWDKFSELATKCIIKIVEFAKRLPGFTGLSIADQITLLKAACLDILMLRICTRYTPEQDTMTFSDGLTLNRTQMHNAGFGPLTDLVFAFAGQLLPLEMDDTETGLLSAICLICGDRMDLEEPEKVDKLQEPLLEALRLYARRRRPSQPYMFPRMLMKITDLRGISTKGAERAITLKMEIPGPMPPLIREMLENPEMFEDDSSQPGPHPNASSEDEVPGGQGKGGLKSPA

system: hMyoD promoter; assay: NHR-promoter luciferase screen, hMyoD promoter; assay type: cell-based, human; settings: MyoD promoter reporter; co-transfected HR, without or with its ligand
Outline: (§1)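 CV-1 cells were co-transfected with 50 ng NHR (homodimer or NHR/RXR heterodimer), 100 ng promoter-luciferase construct and 50 ng LacZ. Luciferase was normalized to LacZ and to a no-NHR/no-ligand control.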

Row | Molecule | Luc. act., normalized to lacZ
1 | B1 | 54.3
2 | B2 | 50.6
3 | B3 | 59.6
4 | B4 | 36.5
5 | B5 | 51.2
6 | B6 | 104.5

same assay, conditions: MyoD promoter reporter; co-transfected HR, without or with its ligand; relative to control

Row | Molecule | Normalized Luc. act., normalized to control
7 | B1 | 0.9
8 | B2 | 0.8
9 | B3 | 0.9
10 | B4 | 0.6
11 | B5 | 0.8
12 | B6 | 1.6

same assay, conditions: hMyoD promoter-luciferase, CV-1 cells, NHR +/- ligand, control = 1.00

Row | Molecule | luciferase activity normalized to lacZ activity and to a control, hMyoD
13 | B1 | 0.86
14 | B2 | 0.80
15 | B3 | 0.94
16 | B4 | 0.58
17 | B5 | 0.81
18 | B6 | 1.65

system: mUCP2 promoter; assay: NHR-promoter luciferase screen, mUCP2 promoter; assay type: cell-based, mouse; settings: mUCP2 promoter reporter; co-transfected HR, with or without its ligand
Outline: as §1

Row | Molecule | Luc. act., normalized to lacZ
19 | B1 | 87.7
20 | B2 | 119.1
21 | B3 | 172.7
22 | B4 | 111.6
23 | B5 | 151.6
24 | B6 | 242.5

same assay, conditions: mUCP2 promoter reporter; co-transfected HR, with or without its ligand; relative to control

Row | Molecule | Normalized Luc. act., normalized to control
25 | B1 | 0.8
26 | B2 | 1.1
27 | B3 | 1.6
28 | B4 | 1.0
29 | B5 | 1.4
30 | B6 | 2.2

same assay, conditions: mUCP2 promoter-luciferase, CV-1 cells, NHR +/- ligand, control = 1.00

Row | Molecule | luciferase activity normalized to lacZ activity and to a control, mUCP2
31 | B1 | 0.80
32 | B2 | 1.08
33 | B3 | 1.57
34 | B4 | 1.02
35 | B5 | 1.38
36 | B6 | 2.21

system: mNPY promoter; assay: NHR-promoter luciferase screen, mNPY promoter; assay type: cell-based, mouse; settings: Table 6d; luciferase activity relative to control (control = 1.00)
Outline: as §1

Row | Molecule | Results of assays of transcription factor (+/- ligand) with mNPY
37 | B1 | 0.80
38 | B2 | 0.83
39 | B3 | 0.70
40 | B4 | 0.92
41 | B5 | 0.88
42 | B6 | 1.20

same assay, conditions: mNPY promoter; HR component with or without ligand

Row | Molecule | Luc. act., normalized to lacZ
43 | B1 | 66.9
44 | B2 | 69.8
45 | B3 | 58.5
46 | B4 | 77.7
47 | B5 | 74.2
48 | B6 | 100.5

same assay, conditions: mNPY promoter; HR component with or without ligand; relative to control

Row | Molecule | Normalized Luc. act., normalized to control
49 | B1 | 0.8
50 | B2 | 0.8
51 | B3 | 0.7
52 | B4 | 0.9
53 | B5 | 0.9
54 | B6 | 1.2

system: MCP-1 promoter; assay: NHR-promoter luciferase screen, MCP-1 promoter; assay type: cell-based; settings: MCP-1 promoter reporter; HR without or with its ligand; relative to control
Outline: as §1

Row | Molecule | Normalized Luc. act., normalized to control
55 | B1 | 0.0
56 | B2 | 2.0
57 | B3 | 1.8
58 | B4 | 1.2
59 | B5 | 1.1
60 | B6 | 1.6

same assay, conditions: MCP-1 promoter reporter; hormone receptor (HR) without or with its ligand

Row | Molecule | Luc. act., normalized to lacZ
61 | B2 | 209.7
62 | B3 | 190.4
63 | B4 | 124.1
64 | B5 | 115.7
65 | B6 | 167.8

same assay, conditions: transcription factor +/- ligand; control = 1.00

Row | Molecule | mMCP-1 promoter reporter activity
66 | B1 | 0.00
67 | B2 | 1.96
68 | B3 | 1.78
69 | B4 | 1.16
70 | B5 | 1.08
71 | B6 | 1.57

system: mDio2 promoter; assay: NHR-promoter luciferase screen, mDio2 promoter; assay type: cell-based, mouse; settings: Dio2; HR component without or with its ligand
Outline: as §1

Row | Molecule | Luc. act., normalized to lacZ | Normalized Luc. act., normalized to control
72 | B1 | 22.8 | 1.5
73 | B2 | 32.7 | 2.1
74 | B3 | 19.1 | 1.2
75 | B4 | 20.2 | 1.3
76 | B5 | 18.4 | 1.2
77 | B6 | 35.2 | 2.2

same assay, conditions: transcription factor +/- ligand; control = 1.00

Row | Molecule | mDio2 promoter reporter activity
78 | B1 | 1.45
79 | B2 | 2.08
80 | B3 | 1.21
81 | B4 | 1.29
82 | B5 | 1.17
83 | B6 | 2.24

system: hPPARg2 promoter; assay: NHR-promoter luciferase screen, hPPARg2 promoter; assay type: cell-based, human; settings: PPARG2 promoter; hormone receptor with or without its ligand
Outline: as §1

Row | Molecule | Luc. act., normalized to lacZ
84 | B1 | 1.5
85 | B2 | 1.8
86 | B3 | 2.5
87 | B4 | 1.8
88 | B5 | 1.3
89 | B6 | 3.0

same assay, conditions: PPARG2 promoter; hormone receptor with or without its ligand; relative to control

Row | Molecule | Normalized Luc. act., normalized to control
90 | B1 | 0.8
91 | B2 | 0.9
92 | B3 | 1.2
93 | B4 | 0.9
94 | B5 | 0.6
95 | B6 | 1.5

same assay, conditions: Table 6d; luciferase activity relative to control (control = 1.00)

Row | Molecule | Results of assays of transcription factor (+/- ligand) with hPPARg2
96 | B1 | 0.75
97 | B2 | 0.91
98 | B3 | 1.24
99 | B4 | 0.89
100 | B5 | 0.63
101 | B6 | 1.51
